Test results as given in the DeepSol protein solubility set.

Assay: soluble on expression in E. coli; label from the status in PepcDB or PDB records

Question: For “KGKLPPVVHGTTPFVGHIIQFGKDPLGFMLKAKKKYGGIFTMNICGNRITVVGDVHQHSKFFTPRNEILSPREVYSFMVPVFGEGVAYAAPYPRMREQLNFLAEELTVAKFQNFAPSIQHEVRKFMKANWNKDEGEINILDDCSAMIINTACQCLFGEDLRKRLDARQFAQLLAKMESCLIPAAVFLPWILKLPLPQSYRCRDARAELQDILSEIIIAREKEEAQKDTNTSDLLAGLLGAVYRDGTRMSQHEVCGMIVAAMFAGQHTSTITTTWSLLHLMDPRNKRHLAKLHQEIDEFPAQLNYDNVMEEMPFAEQCARESIRRDPPLVMLMRKVLKPVQVGKYVVPEGDIIACSPLLSHQDEEAFPNPREWNPERNMKLVDGAFCGFGAGVHKCIGEKFGLLQVKTVLATVLRDYDFELLGPLPEPNYHTMVVGPTASQCRVKYIKKKKAAA”, which “soluble on expression in E. coli” value is on record?
Answer: soluble

Question: Which “soluble on expression in E. coli” value does the source give for “KHDGIPAECTTIYNRGEHTSGMYAIRPSNSQVFHVYCDVISGSPWTLIQHRIDGSQNFNETWENYKYGFGRLDGEFWLGLEKIYSIVKQSNYVLRIELEDWKDNKHYIEYSFYLGNHETNYTLHLVAITGNVPNAIPENKDLVFSTWDHKAKGHFNCPEGYSGGWWWHDECGENNLNGKYNKPRAKSKPERRRGLSWKSQNGRLYSIKSTKMLIHPTDSESFE” here?
Answer: soluble

Question: For “KILSVGSFGCNFVCDFCQNYDISQRKARSTFAPKEELIRIAMTTEDNIGLAFTYNEPSIWYEYMYDCAKLLKETDEKRSVVFVTNGFLSEEPLKKLLPYVDAMNIDLKSFKESYYKSLCGGRLNPVLETIKMAAKVCHVEVTTLLVSGENDNLDEIEEIAKFLASVNSEIPLHLSRYFPRYKLENPPTDVEFMQEAKKTAEKYLKRVMLGNV”, which “soluble on expression in E. coli” value is on record?
Answer: not soluble

Question: With “KIVAVTACPTGIAHTYMAADALMKAAPKHNVQIKVETQGAMGIENQLTPHDIAQADRVLIVSDIEIEQPGRFEGTRKIQIPIEEVLLNVDKVFL” as the sequence, how does the “soluble on expression in E. coli” value read?
Answer: not soluble

Question: For “KKKKKKDPNEPQKPVSAYALFFRDTQAAIKGQNPNATFGEVSKIVASMWDGLGEEQKQVYKKKTEAAKKEYLKQLAAYRASLVSKSYTD”, which “soluble on expression in E. coli” value is on record?
Answer: soluble

Question: Which “soluble on expression in E. coli” value does the source give for “KKVIIIINPTSGGEAALDYKESLESKAKEYFDHVETKITQRAKDATHFAQNASEEKYDAVIVFGGDGTVNEVISGISEKNHIPKLGIIPGRTGNLITKLLEIN” here?
Answer: not soluble

Question: With “KLSSSEKNAILNAVSWYDADAEKVVKGTTKLAGDKLKELLAYLGCKEKELGDYGYFATEKKGEYLEYETESNLRDTENVPLKEAIYTYFLREVKPHVGEAWINLDATKIGYEISFNKYFYKHKPLRSIEDVTADILALEKESDGLIAEILGL” as the sequence, how does the “soluble on expression in E. coli” value read?
Answer: not soluble

Question: Which “soluble on expression in E. coli” value does the source give for “KNRIGTKALNFTYTLASGAQGSLYQLKAEYLLLFINNPGCQACTETIEGLKNAPIINQLLQEKKLVLLSIYPDEELDEWKKHLSEFPNEWINGYDKKFTIKEEQVYDLKAIPTLYLLDKDKTVLLKDATAPAIEAYLMQHQ” here?
Answer: not soluble

Question: With “KPNWCPGCGDFSVQAAIQRAAANVGLEPDQLAVISGIGCSGRISGYINAYGFHGVHGRVLPIAQGVKMANRDVTVIASGGDGDGFAIGMGHTVHAIRRNINITYIVMDNQIYGLTKGQTSPRSDVGFKTKSTPSGSVESALNVMEMALTAGATFVAQSFSSDLKELTALIEKGINHNGFSLINVFSPCVTFNKVNTYDWFKENLTKLSDLEGYDPQNRMVAMQTLMEHNGLVTGLIYQNDKQPSYQDLIAGYDEKPLADQDLTIDEGKFKELVGEF” as the sequence, how does the “soluble on expression in E. coli” value read?
Answer: not soluble

Question: Which “soluble on expression in E. coli” value does the source give for “KQGPTSVAYVEVNNNSMLNVGKYTLADGGGNAFDVAVIFAANINYDTGTKTAYLHFNENVQRVLDNAVTQIRPLQQQGIKVLLSVLGNHQGAGFANFPSQQAASAFAKQLSDAVAKYGLDGVDFNDEYAEYGNNGTAQPNDSSFVHLVTALRANMPDKIISLYNIGPAASRLSYGGVDVSDKFDYAWNPYYGTWQVPGIALPKAQLSPAAVEIGRTSRSTVADLARRTVDEGYGVYLTYNLDGGDRTADVSAFTRELYGSEAVRT” here?
Answer: soluble

Question: For “KQKVINVKEVRLSPTIEEHDFNTKLRNARKFLEKGDKVKATIRFKGRAITHKEIGQRVLDRLSEACADIAVVETAPKMDGRNMFLVLAPKNDNK”, which “soluble on expression in E. coli” value is on record?
Answer: soluble

Question: With “KRTWWLWRQTISSSRGNKVVFEVNADSVRYKSGKIDRSLAWSEIDQLEQTDLGFILHLGKQRQYISKSCLNEEVIAFMVEQHAGSKAS” as the sequence, how does the “soluble on expression in E. coli” value read?
Answer: not soluble

Question: For “KSNYVRVIPNPKVPTDYPAITIEMNDTVSSEQTIEALKSIERVMQEVESQTIADHGQGMIRDVLSYNRSRTEGRVLVPLVDEEIRPFNTFELARRWREAMPVIPGMKSIKIREQSAGGGDRDEFGYLLFGSNINELNQAGRYLIERLQQEEGLFDISSSIDSGSKEVLLSLAPVAYDLGLDLTMIAQQVGGSFYGGEAQRLIRDGEEIKVMVRYPQLTREAFSSLRYAVITTPAGKKVMLGDVVNISEQPGVSTIRREGGYQTVYVYGSIDEELVEPQEIVKIIDDSILPDMKKLHPSVKTELGGDIEEQAAQRNEQ”, which “soluble on expression in E. coli” value is on record?
Answer: not soluble

Question: Which “soluble on expression in E. coli” value does the source give for “KTHFVIQLKEDSQLMDEVVVVGFGTQKKINLTGAVTAVNIQETLGDRPITNVTAALQGVVPGLKIEGTTGTPGDNLSYNIRGTTSINGGGPLVLVNNVPMDINMIDPQDIESVSVLKDAASAAIYGARAAFGVILITTKQGKKDM” here?
Answer: not soluble

Question: Which “soluble on expression in E. coli” value does the source give for “KTTVIPESLKILGWVEFTRLEPWGIKTPARIDTGANTSSMSARDINVFKRNGKTWVRFTFDFKKGTAERSIEIERPLVRMVKIKQHDGPSQERPVISMEICLADEIREAEFDLIDRRALNYPVLLGRKALAGYVVVDPARAYLTKAV” here?
Answer: not soluble

Question: Which “soluble on expression in E. coli” value does the source give for “KVGISMFNILQSTQLSSNTFDFWLEAPRIATHAQAGQFVILRIDEKGERIPLTIAETNPQAGSIRIIFQVIGKTTAALSQLKTSDSLLDITGPLGMPTEVKQYGTVMVVGGGVGIAAIYPIIKALKEAGNRVITILGARTAELVLLQEECRRYSDELIITTDDGSLGKKGLVTEAMEEVIARESVACSWAIGPSIMMKFCTLTAEKHQLPIYVSLNPIMIDGTGMCGGCRVTVDGTMKFACVDGPEFKGNEVNWDEFINRMKQYQEEEAVCFTDRLKEQVEKNG” here?
Answer: not soluble

Question: Which “soluble on expression in E. coli” value does the source give for “KVKSTFNKYSKVSSSKGMTGAMVAEQLLRSQGIYDVSIQRVSGSLTDNYNPRNKTLNLSDSVYNSTSVAAIGVAAHETGHAIQHAYGYGPLSFRTALFP” here?
Answer: not soluble

Question: For “KVLKIPREKIIEKGFTDPREYFASIEVDGGRPPKPGEFRDILVETVREVMGVEVVEAGLSKEEKIIWDRYKEMLTSSRFKMRRSTRLFKASMPPGTRYGFAQIKYRKLVQASVAVDSEGIIRAAMITGDFQLIPADADEEIVKAILGFKHSQYGEAADRVRRLVDERGIMIIGASAEEFIKPV”, which “soluble on expression in E. coli” value is on record?
Answer: soluble

Question: Which “soluble on expression in E. coli” value does the source give for “KVSSQSEDSSIKLIQITDTHLFAAEDGSLLSVNTADSFAAVVAAIGEEQVEFDAILATGDISQDHTPESYQRFVRGIQPLKKACYWLPGNHDYKPSMHSVLPTQQIQAVEHVLLGEHWQVVLLDSQVVGVPHGKLSEQQLQLLDNKLTEYPERHTLVLLHHHPLLVGSAWLDQHTLKESERFWDVVAKHSNVKAILCGHVHQDMDRIHLGARVMATPSTCVQFKPNSQDFALDNCSPGWRELTLHADGQVSTQVKRLKQGRFLPDFNSNGY” here?
Answer: soluble

Question: With “KVVAKGLGLSKAYVGQKSSFTVDCSKAGNNMLLVGVHGPRTPCEEILVKHVGSRLYSVSYLLKDKGEYTLVVKWGHEHIPGSPYRVVVP” as the sequence, how does the “soluble on expression in E. coli” value read?
Answer: soluble

Question: For “LAADQFIVDRPMPEDPYGKTIIAGYHWFSDWGRDTMISLPGLTISTGRPEVARSIIRTFARYVDQGMLPNRFPDAGEQPEYNTVDATLWYFEAVRAYYSATDDDTLLGELFPILADIIDWHCRGTRYNIHLDAADGLLYAGVTGVQLTWMDAKVDDWVVTPRIGKPIEVNALWYNALRTMAKFARHLGKPHQEYEAMADRAKYRFSRFWNDETGYCYDVLDSPNGDDAALRPNQIFAVSLPESPLTPAQQRSVVEVCGRRLLTSHGLRSLAPDHPQYQGKYGGNQYQRDGAYHQGTVWGWLLGPFVLAHLRVYKNPEQARQFLEPMANHLTKHGLGSLSEIFDGDAPMTARGCIAQAWTVAEVLRAWFATES”, which “soluble on expression in E. coli” value is on record?
Answer: not soluble

Question: Which “soluble on expression in E. coli” value does the source give for “LDFATLPPEINSARMYSGAGSAPMLAAASAWHGLSAELRASALSYSSVLSTLTGEEWHGPASASMTAAAAPYVAWMSVTAVRAEQAGAQAEAAAAAYEAAFAATVPPPVIEANRAQLMALIATNVLGQNAPAIAATEAQYAEMWSQDAMAMYGYAGASAAATQLTPFTEPVQTTNASGLAAQSAAIAHATGASAGAQQTTLSQLIAAIPSVLQGLSSSTAATFASGPSGLLGIVGSGSSWLDKLWALLDPNSNFWNTIASSGLFLPSNTIAPFLGLLGGVAAADAAGDVLGEATSGGLGGALVAPLGSAGGLGGTVAAGLGNAATVGTLSVPPSWTAAAPLASPLGSALGGTPMVAPPPAVAAGMPGMPFGTMGGQGFGRAVPQYGFRPNFVARPPAAG” here?
Answer: not soluble

Question: For “LDSKTLARRVLVAQMLATANNVYPTSQTFREKLANLYGAQFSTCISKKGKVHIVDIDISFVSDKFILEGKSILGEIIHFLRAALFKPLISVEHYQSKSFDLEKEN”, which “soluble on expression in E. coli” value is on record?
Answer: not soluble

Question: For “LESALIEVNGKQQLRYEFLNDMLTQQNFQTNPIYAILHESIYCQDFASNWSAHRVRQTRPEFNYEPDQPFYFTGEMVFPWMFDQYVNLKPLKDAAEILAAKEDWAALYDQTQLAQNKVPVSCAVYADDMFVEMDISRETLALIPNSKAWITNEYEHNGLRADGERILDRLIAMGKQTAATLK”, which “soluble on expression in E. coli” value is on record?
Answer: not soluble

Question: Which “soluble on expression in E. coli” value does the source give for “LGSVKPATCEKPKFLEYKTCVGDLAVVIAKALDEFKEFCIVNAANEHMSHGGGVAKAIADFCGPDFVEYCADYVKKHGPQQKLVTPSFVKGIQCVNNVVGPRHGDSNLREKLVAAYKSVLVGGVVNYVVPVLSSGIFGVDFKISIDAMREAFKGCAIRVLLFSLSQEHIDYFDATCK” here?
Answer: soluble

Question: For “LKQLLALDKNIERMECFDISHTQGEATVASCVVFDTEGPRPSEYRRFNIEGITPGDDYAAMEQAVTRRFKRLIDVQLLPDVLIIDGGKGQVSIVKRVLTSLGVEDITLLGVSKGPSRKAGWEKLILVNENREFVLPEDSKALHLLQHIRDEAHRFAI”, which “soluble on expression in E. coli” value is on record?
Answer: not soluble

Question: With “LKSLRCFWNVRFITLSMLPRYTAQMLRRFIPPMLSLWLLFASLAQANGTVDKIQIKGLDKGDDVEMMKNITVSLSLYSVVGKEQGEFRLEYLLSQAEFQTRQALEPFGYYAPTIRIDAPRQNDHITVVIYVDKGEPVRVRQAHVAMTGAAAQDHYLQRDLEDFKPKLGEIFNHPTYEASKVRITRRLAERGYFDADFTHRRVEVTRAAHAADIDLIWESGRRYDMGPVRFHYDYFHEGLFNPLVYWDEGSYFHEGKLDRLRESLTKLDYFSSIDIQPKPEEADPEGNVPVDVKLERAKSKIYTAGISYGSESGAGLRAGVERRYMNARGHKMNARLDYAQNLKSLTTAYQIPAFKWLDGWYIFFARAYDEQTKYIDLRNVKLSAARSGQINRHLTATASLNALRGRWRYRADDGTNTVAYQQSTLVYPQLEASYVDVDDATFPRNGSAATVLLRGGASALGSKSNFTQLHGQLRWFHGLGASSRLILRGEAGTTWASDLVAMPPSLRFFAGGVNSIRGYAFREVGPRTAKPDAFALGAKHVFSAGAEFEYYYKGGPFGGAVFVDSGSAFNRYPDWHTGVGIGLRYRSPVGPVRVDIARGLNSPDSKIQLYIDIGANL” as the sequence, how does the “soluble on expression in E. coli” value read?
Answer: soluble

Question: Which “soluble on expression in E. coli” value does the source give for “LKVGFFKRNLKEKIEAGRGVPNGIPAEDSEQLASGQEAGDPGCLKPLHEKDSESGGGKDG” here?
Answer: soluble

Question: Which “soluble on expression in E. coli” value does the source give for “LLESRELVEKIVSILEEKKAKDLNIIDIREISILADYFVICSGTSTTHIKTLADEVEEKMLEAGIELLHKEGYNSARWILLDYGEVVVHIFHEEDRQFYNLERLWADGVMKHRQ” here?
Answer: soluble
